What was measured:
[1] = target: T1, folate receptor alpha (FRα) on the surface of KB and T47D cells (UniProt P15328 25-234, limits assumed); test: cell-based or functional assay
[2] = target: T1, folate receptor alpha (FRα) on the …; test: blocking of FRα on KB cells (2 µM) in a cytotoxicity assay
Procedure: The cell lines were cultured in culture medium as recommended by the cell supplier (ATCC or DSMZ). To each well of a flat bottom 96-well plate was added 1,000-2,000 cells in 100 μL of the culture medium. Conjugates were diluted into the culture medium using 3-fold dilution series and 100 μL were added per well. […] Control wells containing cells and the medium but lacking the conjugates, as well as wells containing medium only, were included in each assay plate. Assays were performed in triplicate for each data point. The plates were incubated at 37° C. in a humidified 6% CO₂ incubator for 5 to 6 days. Then the relative number of viable cells in each well was determined using either the Alamar Blue reagent according the manufacturer's protocol (Life Technologies) or the WST-8 based Cell Counting Kit-8 (Dojindo Molecular Technologies, Inc., Rockville, Md.). The apparent surviving fraction of cells in each well was calculated by first correcting for the medium background absorbance, and then dividing each value by the average of the values in the control wells (non-treated cells). The surviving fraction of cells was plotted against conjugate concentration in semi-log plots.

T1 sequence (P15328 25-234 limits assumed, stated change not applied): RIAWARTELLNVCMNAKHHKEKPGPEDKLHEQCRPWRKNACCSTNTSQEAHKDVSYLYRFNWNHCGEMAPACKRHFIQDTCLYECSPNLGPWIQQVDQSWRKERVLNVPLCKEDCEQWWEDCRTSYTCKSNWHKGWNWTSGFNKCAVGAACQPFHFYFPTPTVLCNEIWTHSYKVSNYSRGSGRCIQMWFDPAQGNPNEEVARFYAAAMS

Binder	fold loss of cytotoxicity when FRα is blocked by unconjugated huMOV19 [1] [fold]	binding result [2]
huMOV19-C442-D5 (antibody, IgG1, V domains shown, compound D5 linked through its maleimide to the thiol of the engineered Cys 442 (EU/OU numbering); average 2 mol D5/mol antibody) VH: QVQLVQSGAEVVKPGASVKISCKASGYTFTGYFMNWVKQSPGQSLEWIGRIHPYDGDTFYNQKFQGKATLTVDKSSNTAHMELLSLTSEDFAVYYCTRYDGSRAMDYWGQGTTVTVSS VL: DIVLTQSPLSLAVSLGQPAIISCKASQSVSFAGTSLMHWYHQKPGQQPRLLIYRASNLEAGVPDRFSGSGSKTDFTLTISPVEAEDAATYYCQQSREYPYTFGGGTKLEIKR	100	
huMOV19-C442-D4 (antibody, IgG1, V domains shown, compound D4 linked through its maleimide to the thiol of the engineered Cys 442 (EU/OU numbering); average 2 mol D4/mol antibody) VH: QVQLVQSGAEVVKPGASVKISCKASGYTFTGYFMNWVKQSPGQSLEWIGRIHPYDGDTFYNQKFQGKATLTVDKSSNTAHMELLSLTSEDFAVYYCTRYDGSRAMDYWGQGTTVTVSS VL: DIVLTQSPLSLAVSLGQPAIISCKASQSVSFAGTSLMHWYHQKPGQQPRLLIYRASNLEAGVPDRFSGSGSKTDFTLTISPVEAEDAATYYCQQSREYPYTFGGGTKLEIKR	100	
huMOV19 antibody (unconjugated) (antibody, human IgG1, V domains shown, Human IgG1; also called humanized MOV19 antibody; M9346A; copies: 2 + 2) VH: QVQLVQSGAEVVKPGASVKISCKASGYTFTGYFMNWVKQSPGQSLEWIGRIHPYDGDTFYNQKFQGKATLTVDKSSNTAHMELLSLTSEDFAVYYCTRYDGSRAMDYWGQGTTVTVSS VL: DIVLTQSPLSLAVSLGQPAIISCKASQSVSFAGTSLMHWYHQKPGQQPRLLIYRASNLEAGVPDRFSGSGSKTDFTLTISPVEAEDAATYYCQQSREYPYTFGGGTKLEIKR		binds
huMOV19-D2 (antibody, V domains shown, compound D2 linked to lysine residues (positions and chain not stated)) VH: QVQLVQSGAEVVKPGASVKISCKASGYTFTGYFMNWVKQSPGQSLEWIGRIHPYDGDTFYNQKFQGKATLTVDKSSNTAHMELLSLTSEDFAVYYCTRYDGSRAMDYWGQGTTVTVSS VL: DIVLTQSPLSLAVSLGQPAIISCKASQSVSFAGTSLMHWYHQKPGQQPRLLIYRASNLEAGVPDRFSGSGSKTDFTLTISPVEAEDAATYYCQQSREYPYTFGGGTKLEIKR	100	
huMOV19-sulfo-SPDB-D1 (antibody, V domains shown, compound D1 linked through a sulfo-SPDB linker to lysine side chain amino groups (positions and chain not stated)) VH: QVQLVQSGAEVVKPGASVKISCKASGYTFTGYFMNWVKQSPGQSLEWIGRIHPYDGDTFYNQKFQGKATLTVDKSSNTAHMELLSLTSEDFAVYYCTRYDGSRAMDYWGQGTTVTVSS VL: DIVLTQSPLSLAVSLGQPAIISCKASQSVSFAGTSLMHWYHQKPGQQPRLLIYRASNLEAGVPDRFSGSGSKTDFTLTISPVEAEDAATYYCQQSREYPYTFGGGTKLEIKR	100	

Reference: patent publication US20210085800A1 (IMMUNOGEN, published 2021)
